Assay results from article PMC9746415 (Human Vaccines & Immunotherapeutics, 2022).

Assay type: physicochemical
Details: pH 7.4

In-house rituximab
SEC-HPLC % mAb Monomer: 99.2%
